# Source: the RNAGym collection of RNA variant scans (doi:10.1073/pnas.2313332121)
# B1: TPR t1 (parent)
# chain: GACCAAUCUGCCCUCAGAGCUCGAGAACAUCUUCGGAUGCAGAGGAGGCAGGCUUCGGUGGCGCGAUAGCGCCAACGUCCUCAACCUCCAAUGCAUCCCACCACAUGAUGAUGCCUGAAGAGCCUUGGUUUUUUG
# Variants of: B1
# Test: polymerase ribozyme fitness, log enrichment relative to wild type (log ratio); higher = more active; in vitro selection for triplet polymerase activity
# Method in brief: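 Each subunit of a heterodimeric triplet polymerase ribozyme was represented by a PCR-built, transcribed mutant library that underwent triplicate single-round in vitro selection with frozen incubation at −7 °C. Extended constructs were recovered by gel excision, streptavidin-bead capture and RT-PCR, and Illumina sequencing of input and output libraries kept genotypes with ≥10 input reads and ≥1 read per output. Fitness is the logarithm of genotype enrichment relative to wild-type enrichment, from inverse-variance-weighted replicate averages, with a logarithm base of 2.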
row,Variant,polymerase ribozyme fitness (log ratio)
1,A46U A84C,-1.04
2,G47U A50U U54A,-2.42
3,A46G C53U C89U G128A,-3.9
4,G47A G48A A118G,-2.29
5,A46U C56U,-0.82
6,G45U G58A G77A C82A,-1.74
7,G47A G51C G63U C115A G120U U131G,-4.36
8,G45U C62A C89G U112A,-4.99
9,G45A G48U,-1.58
10,A46G C70G C94U,-3.9
11,A46G A50C C85U A90G,-1.11
12,G45C U129A,-2.61
13,G45U A105C,-4.28
14,A46G A95U A105U U109A,-6.27
15,A46G G120C G128C,-2.6
16,G45U A90C A105G U106A U130G U131A,-2.74
17,A46U C70U C124U,-0.517
18,G45A A46C G58U G61U C85A,-4.13
19,A46G G61A,0.179
20,G47A U54C U59A C94G A118C U130C,-5.44
21,G45A G63A C104A,-3.61
22,G44U U112A,0.425
23,G47A U92C,-2.73
24,A46G C49A U112C,1.28

row,Variant,polymerase ribozyme fitness (log ratio)
1,A46C G69U G135U,-0.586
2,G45U C64U A121G G135A,0.974
3,G47A C56U C94U,-1.1
4,G45C U125A,-1.86
5,G47A C70A G77A C79U C86G,-5.44
6,A46C C89A,-5.69
7,A46C C89U,-0.611
8,A46U G48A C104U,-1.94
9,G45U C64U C79G C114U,-5.29
10,A46G G110U U116A,-4.29
11,G45A A121U,1.1
12,G45A C94U G120C,0.045
13,A46U G77A C123A U129A,-2.69
14,G47C C49U C62U,-2.46
15,G45A C53G G61A C79U C98U,-3.8
16,G47C C101A,-2.59
17,A46C G71U U87A C123U U132A,0.774
18,G47U C56G A118U G122A,-2.71
19,G45C U96A G113C,-3.21
20,G45A C99U,-4.32
21,G45U G52U G61C,-2.32
22,G47C C56U U106A C123A,-1.35
23,G45A U130A,-1.49
24,A46G C56A C101G U126C,-2.14

row,Variant,polymerase ribozyme fitness (log ratio)
1,G47C G77U U116G,-3.46
2,G45A C82A,-1.1
3,G45C G60C U129A,-2.68
4,A46C C114U,-2.43
5,G45U C124A,0.716
6,G45A C53A U81C,-0.267
7,A46G C53U,-1.01
8,G47A A84C A121C,0.928
9,A46U C62G C88A,-4.01
10,G47A C72U U78A C88A A119U U132C,-1.87
11,G47U C56U G113U,-4.43
12,G47U C53G C56G,-2.42
13,G45U C56G C73A U116C,-4.92
14,G47A C49U,-0.915
15,G47A C76A C115U,-3.07
16,G47C C62U C88U,-1.75
17,G45A C53U C97U C115U U126C U130A,-5.76
18,G47C C82U,-1.27
19,G47A G120C U130C,0.162
20,G45A C53G C64U,-0.958
21,A46C G48A G51A U87G C123A,-1.77
22,G47U C94U U106G G117U G120A,-5.71
23,A46U C115A,-1.98
24,G47A C62G C72U,-4.13

row,Variant,polymerase ribozyme fitness (log ratio)
1,G45C U55C A75U A95G U126A U129A,-4.26
2,G47C A66U A119U A121U,-0.0171
3,G47C C64U A90C C104U,-2.77
4,G45A C114A,-1.97
5,G47C C123A,-0.0743
6,G44U U125A U131A,-2.47
7,A46C C56U U78A A90G C94U A111C,0.0877
8,A46G G77C C97U C124G,0.934
9,A46U G93A G120A G122A,-3.08
10,A46U C56A C72G G93A G120A C123U,-4.15
11,G45C A119G U131G U132A,0.0169
12,G45C C62A,-2.24
13,G47A U55A G60U A90U U92A,-2.67
14,A46C C115A,-1.52
15,G47A C102U,-2.85
16,G45A C72U C89G A91C,-1.81
17,G45U U59A C101U,-0.987
18,G47C G71C G117U,-4.58
19,G47C G61U,-2.07
20,A46U A91G,-1.96
21,G47C G52U A74G U96A,-4.89
22,G45C C82U G93A C101U,-1.84
23,A46U A105C A119G C124A,-1.39
24,G45U C82A C102U G122A,-3.36

row,Variant,polymerase ribozyme fitness (log ratio)
1,A46C G63U U106A G117A,-3.84
2,G45C C53G C73A,-0.795
3,G45C U55A C56A,-2.11
4,A46C C56A C73A A91U C97U,-4.49
5,G47A G120C,0.156
6,A46U A74C C88G,-4.4
7,G47C C102A,-3.89
8,G47A G93U,-2.71
9,G45A G52C,-1.37
10,G47C A108G U112A U133A,-5.17
11,A46G C88U C97A,-5.17
12,G45A C49G G60U U106C U112A,-0.821
13,A46U C53A,-0.885
14,G45A G63C G110A,-1.54
15,G45A U78C C86A G120U,-2.19
16,G47U C64U U67C,-7.12
17,A46U G63U U78A A90U,-3.56
18,G47C G71U,-1.65
19,G45A C85U C94A,-2.05
20,G45A C64G A68C C104A G117U,-6.22
21,G47U C89U G122A,-4.51
22,G45U C53U A105U,-3.69
23,G45U C97A U112A,-5.81
24,A46U C72G C114U,-4.52

row,Variant,polymerase ribozyme fitness (log ratio)
1,A46U C72G C114G,-3.52
2,G45U C70A C115A G128U,-3.65
3,A46C G51C,-4.63
4,G47A G69C C86A C97U C115U C124G U125C,-5.52
5,G45A A50U U130C,-0.0855
6,A46U G60A C80A A121G,-1.19
7,A46U U55C A95C,-2.5
8,G45C A46U,-2.34
9,G47U C62U U78C G117C,-5.23
10,G45U A66C,-2.87
11,G47A C53G C101U U131A,-1.26
12,G47C G52C,-3
13,A46C C72G,-2.19
14,A46C G47A C53A U78C,-1.4
15,G45A U55C C70U G128A,-4.09
16,G47A U87G,-0.336
17,A46U C64U C101U U132C,-1.55
18,A46G C49G G69C C104U,-3.16
19,A46C C56A A91U C97U,-3.95
20,G47U C56U,-1.38
21,G47U C56G,-3.09
22,G47A U78C,-1.09
23,A46U C79A C115G,-5.77
24,G47U A121C C123A G128A,-2.3

row,Variant,polymerase ribozyme fitness (log ratio)
1,G45A G61A,-0.513
2,G45A G61U,-0.292
3,G45C G58C,-0.221
4,G45U A84G U96G C101G,-4.84
5,A46U C56G U78C G93C G120U,-3.59
6,A46U C73G,-2.11
7,A46U C73U,-1.08
8,A46C C62U U106G,-2.88
9,A46U C73U A90C U133A,-1.35
10,G45U C104U A119G U130A,-1.09
11,G45U A66C G93C U96C C115A,-4.28
12,G45U A46U U106G,-3.7
13,G47U A105G,-3.69
14,G47U C101U C114U A118U,-5.66
15,A46C U87A G110C,-3.24
16,G45A G51A,-3.66
17,G45A G51U,-4.34
18,G45C G61U C86U U87G G93C,-2.62
19,G45A C98U,-1.75
20,A46U G61U,-0.648
21,G47C G61A G69A A111C U116A,-6.11
22,A46U A91C C115G,-3.55
23,G45C G93U,-3.67
